Data reported in article PMC11448073 (Microbiology Spectrum, 2024).

B1: human monoclonal antibody F19 (antibody, V domains shown)
VH: EVQLLESGGGVVQPGGSLRLSCAASGFTFDDYAMHWVRQVPGKGLEWVSLISGDGGSTSYADSVKGRFTISRDNSKNSLYLQMSSLRTEDTALYYCAKDRGRAWIDYWGQGTLVTVSS
VL: not shown
notes: also called HRP-conjugated F19; source: Expi293F, cotransfected heavy and light chain plasmids, purified (Protein A); copies: 2 + 2
B2: human anti-F1 monoclonal antibody αF1Ig8 (antibody, V domains shown)
VH: QVQLQQWGAGLLKPSETLSLTCAVYGGSFSGYYWSWIRQPPGKGLEWIGEINHSGNTNYNPSLKSRVTISVDTSKNQFSLQLNSVTPEDTAVYYCARTRGYFDLWGRGTLVTVSS
VL: DIRMTQSPSSLSASVGDRVTITCRASQSISSYLNWYQQKPGKAPKLLIYATSSLQSGVPSRFSGSGSGTDFTLTISSLQFEDFATYYCQQSYSTPSSFGQGTKVDIK
notes: source: EXPi293F, synthesized expression plasmids
B3: human monoclonal antibody F3 (antibody, V domains shown)
VH: EVQLLESGGGVVQPGRSLRLSCAASGFTFSRYGMHWVRQAPGKGLEWVAVISHDGNIKYYGDSVKGRFTISRDNSKNTLYLQMNSLRVEDTAVYYCAKDRGKFDSWGQGTLVTVSS
VL: not shown
notes: also called F3-HRP; source: Expi293F, cotransfected heavy and light chain plasmids, purified (Protein A); copies: 2 + 2
B4: human monoclonal antibody F23 (antibody, V domains shown)
VH: EVQLLESGGGVVQPGRSLRLSCAASGFTFSSYAMHWVRQAPGKGLEWVAAILYDGSNKNYADSVKGRFTISRDNSKNTLYLQMNSLRAEDTAVYYCARGTPAMVRGVIGPLFEHWGQGTLVTVSS
VL: DIQMTQSPDSLAVALGERATINCKSSQSVLYTSNNKNYLAWYQKKPGQPPKLLIYWASTRESGVPDRFSGSGSGTDFTLTISSLQPEDVAVYYCQQYFILPRTFGQGTKLEIK
notes: also called HRP-conjugated F23; source: Expi293F, cotransfected heavy and light chain plasmids, purified (Protein A); copies: 2 + 2

Experiments:
[1] = target: fraction 1 capsular antigen (F1) of Yersinia pestis (Yersinia pestis EV strain, UniProt P26948); experiment: BLI; settings: both partners purified
[2] = target: T1, SARS-CoV-2 nucleocapsid protein (N) (SARS-CoV-2, strain , UniProt P0DTC9); experiment: ELISA
T1 construct: also called SARS-CoV-2 NPs

[3] = target: fraction 1 capsular antigen (F1) of Yersinia pestis (Yersinia pestis EV strain, UniProt P26948); experiment: ELISA; settings: both partners purified

Row | Binder | Kd [1] | binding result [2] | binding result [3]
1 | B1 | 0.165 nM | no binding | 
2 | B2 |  |  | binds
3 | B3 |  | no binding | 
4 | B4 |  | no binding | 
